This is an account of results in publication PMC1891314.

Assay [1] deals with OD_(CN54)+-Fc (outer domain of HIV-1 CN54 gp120, residues 251-481, with V295N+A394T, fused at its C terminus to the Fc domain of human IgG1) (HIV-1 CN54 | human). Put plainly: SDS-PAGE under non-reducing conditions; purified Fc fusion proteins under non-reducing conditions; data not shown.
In assay [2] the target is gp120_(CN54)+-Fc (HIV-1 CN54 gp120 with V295N+A394T, fused at its C terminus to the Fc domain of human IgG1) (HIV-1 CN54 | human). The description is as above.

The stoichiometry N is the number of molecules, sites or subunits per partner or assembly.

“OD_(CN54)+-Fc (outer domain of HIV-1 CN54 gp120, residues 251-481, with V295N+A394T, fused at its C terminus to the Fc domain of human IgG1) (Fc fusion)” displayed a stoichiometry N in assay [1] of 2.

“gp120_(CN54)+-Fc (HIV-1 CN54 gp120 with V295N+A394T, fused at its C terminus to the Fc domain of human IgG1) (Fc fusion)”: the stoichiometry N in assay [2] came to 2.
